Patent US20020110853A1

Molecular target: FLAG-TWEAKR, expressed on transfected HUVEC (human) (UniProt Q9NP84)
Test: cell-based or functional assay

FLAG-TWEAKR, expressed on transfected HUVEC (human), sequence (Q9NP84 28-129): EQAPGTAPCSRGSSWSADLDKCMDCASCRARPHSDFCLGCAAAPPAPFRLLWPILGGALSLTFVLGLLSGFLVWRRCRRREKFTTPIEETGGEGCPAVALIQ

M2 anti-FLAG monoclonal antibody
BrdU incorporation of FLAG-TWEAKR expressing HUVEC, against goat anti-mouse IgG alone: 3 fold
BrdU incorporation of FLAG-TWEAKR expressing HUVEC, against vector-only transfected HUVEC with the cross-linking complex: 6 fold
